Experimental data: the supplement of paper PMC7125110
± gives the standard error. Fewer inactive variants are shown than the library holds.

B1: glmS ribozyme (parent)
chain: AUAAAAGCGCCAGAACUACAGAAAUGUAGUUGACGAGGAGGAGGUUUAUCGAAUUUUCGGCGGAUGCCUCCAAA

Tests used:
Details in all cases: with glucosamine-6-phosphate
glucosamine-6-phosphate [1] = variants of: B1; assay: self-cleavage kobs at 40 uM GlcN6P; higher = faster cleavage; RNA array
Method in brief: (§1)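 Using a hybridised Cy3 probe at 37 °C, barcoded ribozyme variants transcribed in situ by E. coli RNA polymerase on sequenced MiSeq chips were monitored across tiles imaged over ~14 h. The flow contained glucosamine-6-phosphate from 40 μM to 10 mM in HEPES/KCl/Mg(OAc)2 buffer. Signals were normalised to baseline and to non-cleaving reference variants before per-tile medians were fit to one- or two-exponential decays to yield kobs. Weighted Michaelis–Menten fits across concentrations gave kcat and KM.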

glucosamine-6-phosphate [2] = variants of: B1; assay: self-cleavage kobs at 160 uM GlcN6P; higher = faster cleavage; RNA array
Method in brief: as §1

glucosamine-6-phosphate [3] = variants of: B1; assay: self-cleavage kobs at 640 uM GlcN6P; higher = faster cleavage; RNA array
Method in brief: as §1

glucosamine-6-phosphate [4] = variants of: B1; assay: self-cleavage kobs at 10000 uM GlcN6P; higher = faster cleavage; RNA array
Method in brief: as §1

glucosamine-6-phosphate [5] = variants of: B1; assay: self-cleavage kobs at 2500 uM GlcN6P; higher = faster cleavage; RNA array
Method in brief: as §1

Variant | self-cleavage kobs at 40 uM GlcN6P (glucosamine-6-phosphate [1]) [s⁻¹] | self-cleavage kobs at 160 uM GlcN6P (glucosamine-6-phosphate [2]) [s⁻¹] | self-cleavage kobs at 640 uM GlcN6P (glucosamine-6-phosphate [3]) [s⁻¹] | self-cleavage kobs at 10000 uM GlcN6P (glucosamine-6-phosphate [4]) [s⁻¹] | self-cleavage kobs at 2500 uM GlcN6P (glucosamine-6-phosphate [5]) [s⁻¹]
G9A G41U U56G | < 1e-05 | < 1e-05 | < 1e-05 | < 1e-05 | 
C8U G43A | < 1e-05 | < 1e-05 |  |  | 
G9A G32C A52U | < 1e-05 |  |  | < 1e-05 | 
G7U G9A U57G C67A | < 1e-05 |  |  |  | 
C8U A39C G41A A42C C58G A64G G66A | < 1e-05 |  |  | < 1e-05 | 
C8G C50A C61G G63A C71G | 8.24e-05 ± 3.5e-05 |  |  | 0.000367 ± 0.00014 | 
G9A A14C G37C G38U U49C U69A | < 1e-05 |  |  |  | 
C8A A12U A33C A39G A53C C68A | < 1e-05 |  |  |  | 
C8A U47C C58G G66U | < 1e-05 |  |  | < 1e-05 | < 1e-05
C8U G35A G59U | < 1e-05 |  |  |  | 
C8A U49A G51A | < 1e-05 |  |  | < 1e-05 | 
C8U G29U | < 1e-05 | < 1e-05 | < 1e-05 | < 1e-05 | < 1e-05
G9A G43A | < 1e-05 |  | < 1e-05 |  | < 1e-05
G9A G43U | < 1e-05 | < 1e-05 | < 1e-05 |  | < 1e-05
C8G C10A G60U | < 1e-05 |  |  | < 1e-05 | 
C8G G37C C67G | < 1e-05 |  |  | < 1e-05 | < 1e-05
G9A A33C | < 1e-05 | < 1e-05 | < 1e-05 | < 1e-05 | < 1e-05
C8G G43A G59A G60U | < 1e-05 |  |  |  | 
C8A A52C | < 1e-05 | < 1e-05 | < 1e-05 | < 1e-05 | 
C8A C50G | 5.03e-05 ± 1.7e-05 | 0.000112 ± 3.3e-05 | 0.00101 ± 0.00048 |  | 9.84e-05 ± 2.6e-05
C8G G9C C16A G38A G40U U49G U57C | < 1e-05 |  |  | < 1e-05 | 
C8A G9A A33U | < 1e-05 |  |  |  | 
G9A A14U C61A | < 1e-05 |  |  |  | < 1e-05
G7U U30G | < 1e-05 | < 1e-05 |  | < 1e-05 | 
G7U U30A | < 1e-05 | < 1e-05 | < 1e-05 |  | < 1e-05

Variant | self-cleavage kobs at 40 uM GlcN6P (glucosamine-6-phosphate [1]) [s⁻¹] | self-cleavage kobs at 160 uM GlcN6P (glucosamine-6-phosphate [2]) [s⁻¹] | self-cleavage kobs at 640 uM GlcN6P (glucosamine-6-phosphate [3]) [s⁻¹] | self-cleavage kobs at 10000 uM GlcN6P (glucosamine-6-phosphate [4]) [s⁻¹] | self-cleavage kobs at 2500 uM GlcN6P (glucosamine-6-phosphate [5]) [s⁻¹]
C8A G29U C50U G51U C68G | 6.11e-05 ± 2.7e-05 |  |  |  | 
C8A U30G | < 1e-05 |  | < 1e-05 | < 1e-05 | < 1e-05
C8G C70A | < 1e-05 |  |  | < 1e-05 | < 1e-05
G9A C10U A14U U31C G40C C70A | < 1e-05 |  |  | < 1e-05 | 
C8U C68A | < 1e-05 |  | < 1e-05 |  | < 1e-05
C8A U31C G40A A42C U65A G66A | < 1e-05 |  |  |  | 
C8U U31G G62U | < 1e-05 |  |  |  | 
G7U G35U | < 1e-05 | < 1e-05 |  | < 1e-05 | < 1e-05
C8A C11G A12G C68U | < 1e-05 |  |  |  | 
C8U C16U C50G G60A G66U | 0.000197 ± 6.5e-05 | 9.7e-05 ± 4.4e-05 |  | 0.000101 ± 2.7e-05 | 
G7U C50G | 0.000281 ± 8.4e-05 | 0.000551 ± 0.00024 |  |  | 0.0008 ± 0.00024
G9A A15G | < 1e-05 | < 1e-05 | < 1e-05 | 2.27e-05 ± 1.1e-05 | 
G9A A42C | < 1e-05 | < 1e-05 | < 1e-05 |  | < 1e-05
C8G G29U | < 1e-05 | < 1e-05 | < 1e-05 | < 1e-05 | < 1e-05
C8U A15G G35U C67U | < 1e-05 |  |  |  | 
G7U G38U U46G | < 1e-05 |  |  |  | 
C8A G44C C70A | < 1e-05 |  |  | < 1e-05 | 
C8G A36G | < 1e-05 | < 1e-05 | < 1e-05 | < 1e-05 | 
C8G A36C | < 1e-05 | < 1e-05 | < 1e-05 |  | < 1e-05
G9A A42C C71G | < 1e-05 |  |  |  | 
C8U G29C C50A | < 1e-05 |  | < 1e-05 |  | 
G7U G29C | < 1e-05 | < 1e-05 | < 1e-05 | < 1e-05 | < 1e-05
C8G G9C U55A | < 1e-05 |  | < 1e-05 | < 1e-05 | < 1e-05
C8U C11G C50U U56C U69G | 4.97e-05 ± 2.2e-05 |  |  |  | 
C8U G32A G41U | < 1e-05 | < 1e-05 | < 1e-05 | < 1e-05 | < 1e-05
